These results are taken from patent US20200318093A1.

For series [1], the target named is casein sodium ("MIPRODAN", Nippon Shinyaku). As to the kind of experiment: cell-based or functional assay.
Series [2] shares this target. As to the kind of experiment: cell-based or functional assay. This is another data set of the same source.
The target of series [3] is T1, ovalbumin (Sigma), P01012.
T1 chain: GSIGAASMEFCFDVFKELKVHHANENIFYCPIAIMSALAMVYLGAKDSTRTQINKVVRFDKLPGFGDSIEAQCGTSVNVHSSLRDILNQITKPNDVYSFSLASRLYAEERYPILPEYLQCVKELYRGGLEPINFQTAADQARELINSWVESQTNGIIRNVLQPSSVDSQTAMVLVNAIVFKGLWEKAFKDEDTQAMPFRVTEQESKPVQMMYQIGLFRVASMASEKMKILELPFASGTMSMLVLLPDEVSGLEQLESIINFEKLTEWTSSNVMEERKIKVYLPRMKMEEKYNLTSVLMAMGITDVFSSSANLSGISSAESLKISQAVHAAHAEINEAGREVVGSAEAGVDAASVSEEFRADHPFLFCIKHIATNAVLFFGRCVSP

Series [4] concerns the target skim milk powder (Yotsuba Milk Products, low heat type).
The target of series [5] is fish-derived gelatin (Nippi).
The target in series [6] is bovine-derived alkaline gelatin (Sigma).
Series [7] addresses casein sodium ("MIPRODAN", Nippon Shinyaku).
Series [8] has as its target milk whey protein ("BiPro", Davisco).
In series [9] the target is porcine-derived acidic gelatin (Sigma).

As for “protein asparaginase of Leifsonia xyli AJ111071 (NITE P-01649) (enzyme)”, the released ammonia (3 h reaction with culture supernatant, control subtracted) in series [1] turned out to be 0.289 mM.

B1: protein asparaginase of Leifsonia xyli AJ111071 (NITE P-01649) (protein)
chain: LPVRRRIALTVAAALIPVVALTTAPAALAAPAPDPVVASGSDWAVTTSPGGYLVTLDLDEPLPMVDDAPTLVVDGEPIGLATESADGLTLGVVTTDPAVASASSVTKGWSSGADDKAAETPEAPATPAVPENTTLTEQLKSFAQLVAVEDPADLGSYTVTEAEYDFGDQAVPLAAIGGIRGELTGKMYLTNATGARPTVVLLHGRHTSCSGTGANPLRWPCGPTQMNIRSYLGYEGTARALASRGYNVLSIAANAVNSNDNQLALDYGAQARGRLVLDTLGMLAKATAGDAVAYDDITTATDTVPSTTTTRTLDEALLRATTRADQPAAASGITAASLKGRFDLGHVGIMGHSRGGEGVVSAATLNQALAKPYGIESVLPLAPVDFGRMTLPDVPTAVFLPYCDGDVSNQQGQHFIDDSRHAFDDDVLRSAVWVMGANHNFFNTVWTPGLYPAATGDDWRTTDTTSTCATTNPTRMTAAQQYQVGVSYMTGFFRLTMGGETRFQSLFDGSVKPSTASTAYADVRTMATQPASKTSLVNDFTETSSLVRVSGGATAAVCTNLTGRTVPQSLPFCATTKASAQVPHWTPGSFAPNVPEFPVTRFLWTGASTTDPAVPSTGELRVTVPAKDRDASRHSQLTLKTAPDEAVQTGTDFRITVVDGAGKTFATTASAVNPLAVNRMPGGTNTTLNKVVLQQLTIPTSTITGIDLTDVREVRLTAAIGADGTGTGGVYLSDLAFDTPSVGTAVAQTRTTVNVAPTTVEEGDGPGTADVAVYLNRAEKSAVTAYVSVIGSATAAVGIGMEKVAFAPGETCKAVTVPTLGNTATSAAPSSAFKVSVTNSTNAVMGASAFANLTVREDDGVTGAAPALAPVGAQGDVCTELAAATTPVPLETSAEDVAPGGSFTLRATGYRAGETVAFRYGATDLGTQVAATDGTASVVVTVPEDADLGPAEATASGSGSGRAATVSVSVLAPTETTVTVTPAKPTAGQ
As for B1, the “N-terminus sequence of the insulin B chain after 8 h reaction (protein sequencer)” value in the series with Insulin B chain (Sigma) is “asparagine of the third residue from the N-terminus of the insulin B chain was converted into aspartic acid by deamidation”.

B2: protein asparaginase of Luteimicrobium album AJ111072 (NITE P-01650) (protein)
chain: AVTADDGSTPGTAAYLEDDYDFGDQAVPLANIGGIRGEMTGRIYLPTTAGAHPTVILLHGRHSSCTVPTGGGSVSNPNRWPCIAPQVNIPSYKGYESTAQNLATHGYAVVSISANAINANDNQLAPDYGAQARGQLVLDTLAMLRKANAGEPVSFHDAATDRTVDLASALAVSTEAEDLGSAPTSATNPGDAITPADLVGAFDLDDVGLMGHSRGGEGVVSAVNLNQKLAKPFGIKSVLPLAPVDFGRETAADTNMLVILPYCDGDVSNQQGQHFSDDSRYAYDDDSLRSTLWVMGADHNFFNSVWTPGKYPLSTSDDWGATSTDAVCGPLAPTNVRLSADDQYDVGVAVMSAWFRLTLGGEDQFLPLFDGSADPTLTSVPSAKLWSTATAPATKRADIEAFTANTSRVRVYGSATESVCASAGGRTLPQDAQPCATASALRSTSAMPHWTPASFAPNVPASPMGRFLWTSVSGSTAGSIRVTVPAAARDASEQDALTFKTAPDESVLTGTDLTVTVVDGHGATWSSAVSALNAGAVKRLPISGSTTLNKIVLQQVSVPVSTLAGSIDVSDVREVRFAGATGADGTATGGAYLSDLAFVSSGVGTVAGIASVPTVNVASTVVEEGSSVDEARVAVVLDQPADRTVSAWFTLMGSTADSSNAGLAAQKVTFQPGQTCQAVTVTILGNTVAGAAATTAYKADVSAPDGVIVGAAQFGTFTVREDDALTSGGALAPAVGTQGDVCAEYAARSVVQELTTSGDAVAGSHVTLTGSGYRVGESVAFTDGDAVLGTVLAGADGTAALDWAVPADARVGGHDVTAVGAGSARTAKATVTVRSATTTTLAIAPAAPAVGKAVTLTATVAGPDTAGTVTFADGSTVLGRVAVKDGRAALVVSGGFDAGTHTLTAAFGQTATAEGSVSPAVTFTLVKGKTTTVFVLAATRTTYGTAVAGRIVVGGADGGVATITVGNVVRSVRLDAHGAGSFTVPGTLKPATYRVTASYAGSRTLDTSSARASLTVLKAAPKVTLSAPATARKGATVTVTVKVVGVKGGVRPTGKAVVKLGGKAVKTVSVPSSGVVKVKVRLASAGTAKVTAAYQGSAYYTAASAAAKVKVKVVTK
For the molecule B2, the released ammonia amount (0.68 U/ml enzyme solution) in [2] is 1 mM. Also, in [2], the released ammonia amount (2.7 U/ml enzyme solution) stood at 1.3 mM. In addition, the Amount of generated ammonia in [3] was 0.01 mM; with cornmeal gluten (Sigma), 0.41 mM; with α-casein (Sigma) it was 4.69 mM; in series [4], 1.22 mM; with Soybean proteins, 0.98 mM; with Rice proteins it was 0.04 mM. Moreover, the Amount of generated ammonia in series [5] turned out to be 1.27 mM; in [6], 0.73 mM; in series [7], 2.98 mM; in series [8], 1.17 mM; in the series with α-lactalbumin (Sigma), 1.84 mM; in [9], 2.23 mM.
